Assay [1] concerns the target recombinant human ErbB2 extracellular domain (ErbB2-ECD) (human) (UniProt P04626). Briefly: competitive ELISA vs biotin-Trastuzumab on ErbB2-ECD; control. On the technique in general: An ELISA detects its analyte on a solid surface through an enzyme-linked reagent.
The target in assay [2] is T1, human ErbB2 on ErbB2-positive cells (human, UniProt P04626 23-1255). Briefly: cell-based or functional assay.
Assay [3] addresses T1, human ErbB2 on ErbB2-positive cells. Briefly: cell-based or functional assay. The source holds these as a separate data set.
For assay [4], the target named is T2, recombinant Macaca mulatta ErbB2-ECD (Macaca mulatta, UniProt I0FM22 23-652).
T2 construct: extracellular domain
The assay can be described thus: indirect ELISA, coated ErbB2-ECD 1 ug/ml. How it is done: (§1) Using indirect ELISA described in Example 1, the binding activity of antibodies of this invention to recombinant ErbB2-ECD derived from different species such as mouse, rat, Macaca mulatta, Macaca fascicularis and human, was examined. Briefly. Coat 96-well ELISA plates with 1 ug/ml recombinant ErbB2-ECD of different species with 100 ul/well and incubate at 4° C. for overnight. Remove the coating solution by discarding and tapping gently on a filter paper. Add 200 ul/well blocking buffer, incubate at 37° C. for 1-2 hours. Add purified antibody of this invention and incubate at 37° C. for one hour. Wash the plate 3 times with PBST, add goat anti-mouse IgG-HRP 100 ul/well, incubate at 37° C. for one hour. Wash the plate 3 times with PBST, add 100 ul/well TMB after 15 min, add 50 ul/well 1N HCl. Read the plate with Microplate Reader at 450 nm wavelength.

Assay [5] deals with T3, recombinant rat ErbB2-ECD (rat, UniProt P06494 23-654).
T3 construct: extracellular domain
Briefly: indirect ELISA, coated ErbB2-ECD 1 ug/ml. How it is done: as §1

Assay [6] concerns the target T4, recombinant mouse ErbB2-ECD (mouse, UniProt P70424 23-653).
T4 construct: extracellular domain
Briefly: indirect ELISA, coated ErbB2-ECD 1 ug/ml. How it is done:
as §1

The target of assay [7] is T5, recombinant human ErbB2 extracellular domain (ErbB2-ECD) (human, UniProt P04626 23-652).
T5 construct: extracellular domain; Coated on plates or used biotin-labeled in solution (capture ELISA); also called Human ErbB2-ECD; rhErbB2
Briefly: capture ELISA, coated antibody, biotin-human ErbB2-ECD titrated. How it is done:
(§2) The corresponding purified IgG of five antibodies of this invention were also evaluated for their binding activity to recombinant human ErbB2 by capture ELISA. The procedure is briefly described as following: The 96-well plates were coated with 0.5 μg/ml anti-ErbB2 antibody overnight, blocked by 1% BSA in PBST at 37° C. for one hour. Add serial diluted sample of biotin-human ErbB2-ECD started with 2 μg/ml with 1:5 serial dilution. Wash the plate 3 times with PBST and add 100 ul of HRP-streptavidin (1:5000) to each well. Incubate for another 40 min at 37° C. Wash the plate 3 times with PBST and add 100 ul/well of TMB to develop at RT for 15 min followed by quenching with 50 ul 1N HCl. Read the plates at 450 nm for OD's value. Calculate the binding EC50 by using Prism software and the results are in Table 8 below

Assay [8] has as its target T1, human ErbB2 on ErbB2-positive cells. The assay can be described thus: cell-based or functional assay. The source holds these as a separate data set.
For assay [9], the target named is T2, recombinant Macaca mulatta ErbB2-ECD. The assay can be described thus: indirect ELISA, coated ErbB2-ECD. How it is done: as §1
(§3) Following the same method described in Example 5, the binding activity of the chimeric antibodies of this invention was examined for binding recombinant ErbB2-ECD derived from different species such as mouse, rat Macaca mulatta, Macaca fasciculari and human.

Assay [10] concerns the target T3, recombinant rat ErbB2-ECD. Briefly: indirect ELISA, coated ErbB2-ECD. How it is done:
as §1, §3

For assay [11], the target named is T4, recombinant mouse ErbB2-ECD. The assay can be described thus: indirect ELISA, coated ErbB2-ECD. How it is done: as §1, §3
For assay [12], the target named is T5, recombinant human ErbB2 extracellular …. The assay can be described thus: capture ELISA, recombinant ErbB2-ECD. How it is done:
as §2
The variable domains of the heavy and light chain of the anti-ErbB2 monoclonal antibodies (Table 12, above) were cloned in-frame to human IgG1 heavy-chain and kappa light-chain constant regions, respectively.

Assay [13] shares this target. The assay can be described thus: capture ELISA, recombinant ErbB2-ECD. The source holds these as a separate data set.

Where a chain is given by its changes, count along the chain named.

The record followed here is patent US20200002434A1 (BIOSION, published 2020).

What is called EC50 is the concentration needed to bring the measured effect to its halfway point.

T3 sequence (P06494 23-654): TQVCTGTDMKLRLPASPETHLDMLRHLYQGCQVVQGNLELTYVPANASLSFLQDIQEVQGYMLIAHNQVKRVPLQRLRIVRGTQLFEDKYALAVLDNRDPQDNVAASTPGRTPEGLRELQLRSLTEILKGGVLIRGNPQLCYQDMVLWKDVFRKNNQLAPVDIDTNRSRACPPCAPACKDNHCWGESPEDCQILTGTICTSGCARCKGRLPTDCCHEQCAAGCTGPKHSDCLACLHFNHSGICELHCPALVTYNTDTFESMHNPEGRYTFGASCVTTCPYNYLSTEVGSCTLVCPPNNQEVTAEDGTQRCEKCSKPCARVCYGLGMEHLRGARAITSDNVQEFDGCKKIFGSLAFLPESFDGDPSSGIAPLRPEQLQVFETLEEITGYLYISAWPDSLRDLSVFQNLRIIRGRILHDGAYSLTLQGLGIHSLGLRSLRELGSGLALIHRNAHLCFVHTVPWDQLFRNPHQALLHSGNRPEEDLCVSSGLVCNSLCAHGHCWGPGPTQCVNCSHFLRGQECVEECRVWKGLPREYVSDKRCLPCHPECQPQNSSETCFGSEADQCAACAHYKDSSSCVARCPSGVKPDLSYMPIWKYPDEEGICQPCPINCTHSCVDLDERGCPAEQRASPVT
T4 sequence (P70424 23-653): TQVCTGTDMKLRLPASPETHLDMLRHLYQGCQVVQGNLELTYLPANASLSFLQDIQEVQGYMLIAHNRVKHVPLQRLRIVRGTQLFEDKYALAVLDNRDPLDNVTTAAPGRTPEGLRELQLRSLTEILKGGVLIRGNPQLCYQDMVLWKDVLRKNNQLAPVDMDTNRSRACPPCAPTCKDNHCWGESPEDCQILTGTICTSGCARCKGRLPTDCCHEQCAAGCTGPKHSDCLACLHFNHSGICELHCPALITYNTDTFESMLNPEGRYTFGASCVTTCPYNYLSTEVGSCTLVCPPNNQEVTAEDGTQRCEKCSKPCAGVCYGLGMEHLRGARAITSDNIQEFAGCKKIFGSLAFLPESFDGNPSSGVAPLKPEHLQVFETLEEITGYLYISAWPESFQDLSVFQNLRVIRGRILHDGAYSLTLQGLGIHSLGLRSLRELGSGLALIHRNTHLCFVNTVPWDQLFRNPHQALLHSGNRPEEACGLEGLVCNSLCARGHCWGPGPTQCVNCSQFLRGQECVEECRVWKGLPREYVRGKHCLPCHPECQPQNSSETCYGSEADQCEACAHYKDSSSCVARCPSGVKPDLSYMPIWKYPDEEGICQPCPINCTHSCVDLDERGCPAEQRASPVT

As for normal mouse IgG (antibody), the OD450 in assay [1] was found to be 2.8 OD.

In the case of normal human IgG (antibody), in assay [1], the OD450 amounted to 2.91 OD.

B1: 4C9 mouse anti-ErbB2 monoclonal antibody (antibody, mouse IgG1, V domains shown)
VH: QVQLQQSGAELARPGASVKMSCKASGYTFTSYTMHWVKQRPGQGLDWIGYINPSSGYTTYNQKFKDKATLTADKSSSTAYMQLSSLASADSAVYYCARASAYSLDYWGQGTTLTVSS
VL: DIQMTQSPSSLSASLGGRVTITCKASHDIDRYIAWYQHKPGKGPRLLIHYTSTLQPGIPSRFSGSGSGRDYSFSISNLEPEDIATYYCLKYDNLLWTFGGGTKLEIT
notes: also called 4C9G3F5; IgG 4C9
As for B1, in assay [2], the “BT474 cell proliferation inhibition IC50 (hIgG + 4C9)” value amounted to 0.471 nM. The “Internalization rate in SKBR3 cells, FITC signal, 2-hour” value (from here on “Internalization rate in SKBR3 cells”) in assay [3] was 23.8. The results for the binding result in assay [4], in [5] and in [6] were “binds”, “no binding” and “no binding”, respectively. In addition, in assay [7], the EC50 was 0.142 nM.

B2: 4G6 mouse anti-ErbB2 monoclonal antibody (antibody, mouse IgG1, V domains shown)
VH: B1 VH with D46E, G56A, T59N, Y80N, S84N, A87T, A89E, T112A
VL: DIQMTQSPSSLSASLGGKVTITCKASQDINKYIAWYQHKPGKGPRLLIHSTSTLYPGIPSRFSGSGSGRDYSFRITNLEPEDIATYYCLQYDNLLWTFGGGTKVGIR
notes: also called 4G6C9B8; IgG 4G6
On to B2, for which, in assay [2], the “BT474 cell proliferation inhibition IC50 (hIgG + 4G6)” value was ~1.24 nM. Moreover, in assay [3], the “Internalization rate in SKBR3 cells” value is 18.5. Moreover, the binding result in [4] is listed as “binds”; in [5] it was “no binding”; in [6] it was “no binding”. Further, the EC50 in assay [7] was determined as 0.021 nM.

B3: 4G6 chimera (antibody, V domains shown)
VH: B1 VH with D46E, G56A, T59N, Y80N, S84N, A87T, A89E, T112A
VL: B2 VL
notes: also called 4G6 chimeric antibody
Consider B3, for which the “BT474 cell proliferation inhibition IC50 (hIgG + 4G6c)” value in assay [8] is 36.3 nM. Besides, the binding result in [9] is on record as “binds”; in assay [10] it was “no binding”; in assay [11], “no binding”. Further, the EC50 in [12] stood at 0.02 nM.

B4: 5G9 chimera (antibody, V domains shown)
VH: B1 VH with A24T, T30S, M34I, G56D, T59A, K65R, K74Q, S77N, Y102F, Y106F
VL: B1 VL with R18K, T22S, I83V, K90N
notes: also called 5G9 chimeric; 5G9 chimeric antibody
As to B4, in assay [8], the “BT474 cell proliferation inhibition IC50 (hIgG + 5G9c)” value came out at 43.4 nM. The values for the binding result in assay [9], in [10] and in assay [11] were “binds”, “no binding” and “no binding”, respectively. Also, the EC50 in [12] came to 0.049 nM; in assay [13], 0.044 nM.

B5: 4H2 chimera (antibody, V domains shown)
VH: B1 VH with Y27F, M34I, K63R, A87T
VL: B1 VL with R18K, H27Q, D70N, T107K
notes: also called 4H2 chimeric antibody
With B5, in assay [8], the “BT474 cell proliferation inhibition IC50 (hIgG + 4H2c)” value was 19.3 nM. Moreover, the binding result in assay [9] is “binds”; in assay [10] it was “no binding”; in assay [11], “no binding”. Also, the EC50 in assay [12] worked out at 0.118 nM.

B6: 5F12 mouse anti-ErbB2 monoclonal antibody (antibody, mouse IgG1, V domains shown)
VH: QVQLQQSGAELARPGASVKMSCKASGYTFTSYTMHWIKQRPGQGLEWIGYINPSSSYTNYNQNFKDKATLTADKSSSTANMQLNSLTSEDSAVYYCARASSYSLDYWGQGTALTVSS
VL: B2 VL with A13T, R69K, V104L
notes: also called 5F12E5A8; IgG 5F12
With B6, the “BT474 cell proliferation inhibition IC50 (hIgG + 5F12)” value in assay [2] was determined as 0.7 nM. Also, in [3], the “Internalization rate in SKBR3 cells” value amounted to 22.6. In addition, the results for the binding result in assay [4], in assay [5] and in assay [6] were “binds”, “no binding” and “no binding”, respectively. Further, the EC50 in assay [7] came out at 0.156 nM.

B7: 4H2 mouse anti-ErbB2 monoclonal antibody (antibody, mouse IgG1, V domains shown)
VH: B1 VH with Y27F, M34I, K63R, A87T
VL: B1 VL with R18K, H27Q, D70N, T107K
notes: also called 4H2H2H9; IgG 4H2
Regarding B7, the “BT474 cell proliferation inhibition IC50 (hIgG + 4H2)” value in assay [2] is ~1.17 nM. For the same molecule, in assay [3], the “Internalization rate in SKBR3 cells” value is 17.7. The binding result in [4] was “binds”; in assay [5], “no binding”; in [6] it was “no binding”. Further, in assay [7], the EC50 amounted to 0.117 nM.
